± gives the uncertainty stated by the source.
Assay: self-splicing fitness, log relative to wild type (ln ratio); higher = more splicing; Tetrahymena group I intron in knt gene, E. coli kanamycin selection, DiMSum; sequences stand for … in CUCUCU…GGAGGGAAAAGUUAUCAGGCAUGCACCUGGUAGCUAGUCUUUAAACCAAUAGAUUGCAUCGGUUUAAAAGGCAAGACCGUCAAAUUGCGGGAAAGGGGUCAACAGCCGUUCAGUACCAAGUCUCAGGGGAAACUUUGAGAUGGCCUUGCAAAGGGUAUGGUAAUAAGCUGACGGACAUGGUCCUAACCACGCAGCCAAGUCCUAAGUCAACAGAUCUUCUGUUGAUAUGGAUGCAGUUCACAGACUAAAUGUCGGUCGGGGAAGAUGUAUUCUUCUCAUAAGAUAUAGUCGGACCUCUCCUUAAUGGGAGCUAGCGGAUGAAGUGAUGCAACACUGGAGCCGCUGGGAACUAAUUUGUAUGCGAAAGUAUAUUGAUUAGUUUUGGAGUACUCGUGGUCG
Summary of the method: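 Pooled colonies went to amplicon sequencing on an Illumina HiSeq 2500 after six replicate transformations. The plates were LB agar with 100 μg/mL carbenicillin, 50 μM IPTG and 0.2% rhamnose, with or without 25 μg/mL kanamycin, incubated overnight at 37°C or 30°C. The E. coli BL21(DE3) library had all eight P1ex-region intron nucleotides randomised, the intron placed in the knt kanamycin-resistance gene on pET-22b(+). DiMSum fitness is the error-weighted combination of replicate fold changes, kanamycin against none, normalised to wild type.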

Row | Sequence | self-splicing fitness (ln) (30 °C) | self-splicing fitness (ln) (37 °C)
1 | GCUCAGCAAUAUUACGAGUU | -1.85 ± 0.079 | -0.858 ± 0.09
2 | GCUCAGCAAUAUUACGAUGG | -1.05 ± 0.11 | 0.368 ± 0.13
3 | GCUCAGCAAUAUUACGCACG | -3.19 ± 0.31 | -1.02 ± 0.24
4 | GCUCAGCAAUAUUACGCGAC | -3.49 ± 0.3 | 0.167 ± 0.16
5 | GCUCAGCAAUAUUACGCGCA | -1.77 ± 0.13 | -0.106 ± 0.13
6 | GCUCAGCAAUAUUACGCGCC | -2.16 ± 0.14 | -1.92 ± 0.17
7 | GCUCAGCAAUAUUACGCUAC | -3.26 ± 0.17 | -2.69 ± 0.2
8 | GCUCAGCAAUAUUACGCUGA | -2.82 ± 0.35 | 
9 | GCUCAGCAAUAUUACGGAAG | -2.23 ± 0.09 | -0.736 ± 0.11
10 | GCUCAGCAAUAUUACGGCGU | -0.15 ± 0.062 | 0.324 ± 0.082
11 | GCUCAGCAAUAUUACGGGCA | -1.76 ± 0.17 | -0.69 ± 0.17
12 | GCUCAGCAAUAUUACGGGCU | -4.72 ± 0.38 | -2.63 ± 0.21
13 | GCUCAGCAAUAUUACGGGUA | -0.401 ± 0.077 | -0.454 ± 0.078
14 | GCUCAGCAAUAUUACGGUUC | -0.806 ± 0.065 | 0.0632 ± 0.071
15 | GCUCAGCAAUAUUACGGUUU | -0.112 ± 0.059 | 0.228 ± 0.073
16 | GCUCAGCAAUAUUACGUAUA | -1.73 ± 0.096 | -0.338 ± 0.085
17 | GCUCAGCAAUAUUACGUUAG | -2.79 ± 0.13 | -0.765 ± 0.12
18 | GCUCAGCAAUAUUACGUUUC | -0.455 ± 0.065 | -0.0579 ± 0.091
19 | GCUGAGCAAUAUUACGAAAU | -3.27 ± 0.2 | -2.43 ± 0.22
20 | GCUGAGCAAUAUUACGACGC |  | -1.7 ± 0.42

Row | Sequence | self-splicing fitness (ln) (30 °C) | self-splicing fitness (ln) (37 °C)
21 | GCUGAGCAAUAUUACGAGGA | -2.31 ± 0.16 | -2.48 ± 0.18
22 | GCUGAGCAAUAUUACGAGUC |  | -2.04 ± 0.25
23 | GCUGAGCAAUAUUACGAUAA | -3.51 ± 0.4 | -3.27 ± 0.35
24 | GCUGAGCAAUAUUACGCAUA | -3.37 ± 0.3 | -1.82 ± 0.17
25 | GCUGAGCAAUAUUACGCCAA |  | -3.52 ± 0.46
26 | GCUGAGCAAUAUUACGCGGU | -3.6 ± 0.21 | -2.02 ± 0.3
27 | GCUGAGCAAUAUUACGCUCU | -1.12 ± 0.17 | -0.769 ± 0.2
28 | GCUGAGCAAUAUUACGCUGC | -2.56 ± 0.32 | -1.92 ± 0.3
29 | GCUGAGCAAUAUUACGGCCA | -2.02 ± 0.28 | -1.9 ± 0.38
30 | GCUGAGCAAUAUUACGGGCU | -1.89 ± 0.31 | 
31 | GCUGAGCAAUAUUACGGGGA | -2.81 ± 0.3 | -2.03 ± 0.32
32 | GCUGAGCAAUAUUACGGGGG | -2.59 ± 0.2 | -1.8 ± 0.21
33 | GCUGAGCAAUAUUACGGUAG | -3.27 ± 0.24 | -3.11 ± 0.3
34 | GCUGAGCAAUAUUACGUAAU | -3.77 ± 0.24 | -1.29 ± 0.14
35 | GCUGAGCAAUAUUACGUCGA | -1.34 ± 0.24 | -1.72 ± 0.24
36 | GCUGAGCAAUAUUACGUCUC |  | -1.16 ± 0.35
37 | GCUGAGCAAUAUUACGUUGU | -3.56 ± 0.14 | -2.83 ± 0.17
38 | GCUUAGCAAUAUUACGAGUG | -0.38 ± 0.096 | -0.545 ± 0.11
39 | GCUUAGCAAUAUUACGAUGA | -0.547 ± 0.12 | -0.556 ± 0.12
40 | GCUUAGCAAUAUUACGCAGU | -2.45 ± 0.25 | -3.16 ± 0.47

Source: the supplement of paper PMC7877785
